{"source": "patent US20170240604A1", "about": "(Harvard, published 2017)", "binders": {"B1": {"name": "225-3 (peptide)", "peptide": "GCGGPRRPRRPRYPGDDASIEDLHEYWARLWNYLYAVA", "modifications": "also: Cys2 labelled with fluorescein-maleimide or biotin-PEG2-maleimide, or unlabelled, depending on assay, non-covalent head-to-tail homodimer", "notes": "Recombinant, TEV-cleaved"}}, "key": {"[1]": {"biological_target": "KRas (G12V)·GppNHp (human) (UniProt P01116)", "assay": "fluorescence polarization; FITC-labeled peptide at fixed concentration, KRas(G12V) GppNHp titrated 0.5 to 5000 nM; one-site fit with Hill coefficient"}, "[2]": {"biological_target": "K-Ras (mutation and nucleotide state not stated where it is used) (UniProt P01116)", "assay": "fluorescence polarization"}, "[3]": {"biological_target": "T1, Rab25 (GppNHp-bound) (UniProt P57735 1-213, limits assumed)", "T1 sequence (looked up)": "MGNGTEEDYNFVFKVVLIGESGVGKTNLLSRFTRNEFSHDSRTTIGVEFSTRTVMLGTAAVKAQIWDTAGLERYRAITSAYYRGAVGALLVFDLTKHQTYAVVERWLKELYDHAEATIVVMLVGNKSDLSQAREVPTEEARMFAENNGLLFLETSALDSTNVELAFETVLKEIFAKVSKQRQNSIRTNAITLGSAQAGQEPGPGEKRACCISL", "assay": "fluorescence polarization, FITC-225-3 with GppNHp-bound Rab25; FP, GppNHp-bound Rab25; weak binding given as a number"}, "[4]": {"biological_target": "NRas·GppNHp (UniProt P01111)", "assay": "fluorescence polarization, FITC-225-3 with GppNHp-bound NRas"}, "[5]": {"biological_target": "T1, Rab25 (GppNHp-bound)", "assay": "fluorescence polarization; FITC-labeled 225-3 at fixed concentration, protein titrated; one-site specific binding fit with Hill coefficient"}, "[6]": {"biological_target": "T2, RalA (UniProt P11233 1-178, limits assumed)", "T2 construct": "also called RalA protein", "T2 sequence": "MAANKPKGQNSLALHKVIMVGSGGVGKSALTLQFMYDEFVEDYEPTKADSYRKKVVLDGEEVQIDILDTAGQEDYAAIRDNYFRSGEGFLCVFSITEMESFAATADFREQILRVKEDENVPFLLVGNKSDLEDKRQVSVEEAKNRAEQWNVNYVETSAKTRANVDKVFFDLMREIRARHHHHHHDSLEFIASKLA", "assay": "fluorescence polarization; FITC-labeled 225-3 at fixed concentration, protein titrated; one-site specific binding fit with Hill coefficient"}, "[7]": {"biological_target": "HRas·GppNHp (UniProt P01112 1-177, limits assumed)", "assay": "fluorescence polarization, FITC-225-3 with GppNHp-bound HRas"}, "[8]": {"biological_target": "T3, Rap1a (GppNHp-bound) (UniProt P62834 1-167, limits assumed)", "T3 construct": "also called Rapla (so in the source)", "T3 sequence": "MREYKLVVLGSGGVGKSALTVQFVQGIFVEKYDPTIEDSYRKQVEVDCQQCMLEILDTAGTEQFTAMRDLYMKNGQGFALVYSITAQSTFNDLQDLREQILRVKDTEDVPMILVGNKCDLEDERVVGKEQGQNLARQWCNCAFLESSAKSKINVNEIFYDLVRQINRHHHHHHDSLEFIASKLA", "assay": "fluorescence polarization, FITC-225-3 with GppNHp-bound Rap1a; FP, GppNHp-bound Rap1a"}}, "note": "No end group written: not given here. fluorescein maleimide = fluorescein maleimide (label on cysteine)"}
{"binder": "GC(fluorescein maleimide)GGPRRPRRPAYPGDDASIEDLHEYWARLWNYLYAVA", "note": "[225-3 R6A]", "values": [{"measurement": "Kd", "setting": "[1]", "result": 340, "unit": "nM"}]}
{"binder": "GC(fluorescein maleimide)GGPRRPRRPRYPGDDASIEDLHEYWARLWNYLAAVA", "note": "[225-3 Y29A]", "values": [{"measurement": "Kd", "setting": "[1]", "result": 200, "unit": "nM"}]}
{"binder": "GRRPRRPRCPGDDASIEDLHEYWARLWNYLYAVA (also: FITC label, site not given here)", "note": "[RDA3]", "values": [{"measurement": "Kd", "setting": "[2]", "result": 6, "unit": "nM"}]}
{"binder": "GC(fluorescein maleimide)GGPRRPRRPRYPGDAASIEDLHEYWARLWNYLYAVA", "note": "[225-3 D11A]", "values": [{"measurement": "Kd", "setting": "[1]", "result": 550, "unit": "nM"}]}
{"binder": "GC(fluorescein maleimide)GGPRRPARPRYPGDDASIEDLHEYWARLWNYLYAVA", "note": "[225-3 R3A]", "values": [{"measurement": "Kd", "setting": "[1]", "result": 84, "unit": "nM"}]}
{"binder": "B1", "values": [{"measurement": "Kd", "setting": "[3]", "result": "~10000", "unit": "nM"}, {"measurement": "Kd", "setting": "[4]", "result": 45, "unit": "nM"}, {"measurement": "Kd", "setting": "[5]", "result": "> 5000", "unit": "nM"}, {"measurement": "Kd", "setting": "[6]", "result": "> 5000", "unit": "nM"}, {"measurement": "Kd", "setting": "[7]", "result": 45, "unit": "nM"}, {"measurement": "Kd", "setting": "[8]", "result": 3500, "unit": "nM"}]}
{"binder": "GC(fluorescein maleimide)GGPRRPRRPRYPGDDASIEDLAEYWARLWNYLYAVA", "note": "[225-3 H18A]", "values": [{"measurement": "Kd", "setting": "[1]", "result": 170, "unit": "nM"}]}
